Consider seven substances from US20090142300A1.

For this experiment, the target named is T1, wild-type Toll-like receptor 3 (TLR3), homo sapiens (homo sapiens) (UniProt O15455).
T1 sequence: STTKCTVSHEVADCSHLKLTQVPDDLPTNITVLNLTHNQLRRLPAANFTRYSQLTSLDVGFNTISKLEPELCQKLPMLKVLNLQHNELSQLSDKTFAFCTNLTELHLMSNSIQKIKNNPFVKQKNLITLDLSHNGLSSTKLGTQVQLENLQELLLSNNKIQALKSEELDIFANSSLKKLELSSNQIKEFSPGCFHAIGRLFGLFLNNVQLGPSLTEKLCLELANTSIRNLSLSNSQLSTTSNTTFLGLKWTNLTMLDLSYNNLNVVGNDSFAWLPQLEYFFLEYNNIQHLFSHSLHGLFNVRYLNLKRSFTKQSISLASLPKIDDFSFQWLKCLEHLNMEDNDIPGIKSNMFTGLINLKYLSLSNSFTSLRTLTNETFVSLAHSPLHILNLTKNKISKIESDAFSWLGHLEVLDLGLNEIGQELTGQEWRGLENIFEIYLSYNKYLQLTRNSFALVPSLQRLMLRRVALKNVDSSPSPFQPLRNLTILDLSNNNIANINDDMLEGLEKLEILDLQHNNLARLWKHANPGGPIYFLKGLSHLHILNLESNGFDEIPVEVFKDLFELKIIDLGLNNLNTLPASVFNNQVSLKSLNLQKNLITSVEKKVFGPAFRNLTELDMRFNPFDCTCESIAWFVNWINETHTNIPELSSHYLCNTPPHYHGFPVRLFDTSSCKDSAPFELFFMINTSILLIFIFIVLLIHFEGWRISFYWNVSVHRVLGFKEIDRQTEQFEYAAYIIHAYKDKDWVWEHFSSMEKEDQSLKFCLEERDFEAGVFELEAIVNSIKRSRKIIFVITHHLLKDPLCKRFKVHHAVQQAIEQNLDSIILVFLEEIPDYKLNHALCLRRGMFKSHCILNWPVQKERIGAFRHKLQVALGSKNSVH
Put plainly: cell-based or functional assay.

Regarding “K467EΔTIR, TLR3 mutant K467E lacking the TIR domain (from UniProt O15455 24-753) (receptor)”, the wild-type TLR3 activity with the mutant at six fold molar excess (dominant negative assay) was 27%.

In turn, “TLR3 mutant C37A (from UniProt O15455 24-904) (receptor)” had a wild-type TLR3 activity with the mutant at six molar excess of WT (dominant negative assay) of 61%. The same measure, in the same setting: the value for “TLR3 mutant C696A (from UniProt O15455 24-904) (receptor)” was 76%.

Turning to “TLR3 mutant E442K (from UniProt O15455 24-904) (receptor)”, the wild-type TLR3 activity with the mutant at six molar excess to the WT (dominant negative assay) is 51%. As to “TLR3 mutant H539E (from UniProt O15455 24-904) (receptor)”, the wild-type TLR3 activity with the mutant at six molar excess of WT (dominant negative assay) turned out to be 16%. Still for that read-out and setting: the same measure for “TLR3 mutant N466A (from UniProt O15455 24-904) (receptor)”: 17%.

“ΔTIR, dominant negative version of TLR3 that lacks the TIR domain (from UniProt O15455 24-753) (receptor)” yielded a wild-type TLR3 activity (NF-kB luciferase reporter, poly(I:C) induced) with the mutant at 2-fold molar excess, relative to empty vector of 26%; a wild-type TLR3 activity (NF-kB luciferase reporter, poly(I:C) induced) with the mutant at 6-fold molar excess, relative to empty vector of 12%; a wild-type TLR3 activity with the mutant at six molar excess of WT (dominant negative assay) of 14%.
